Experiments:
[1] = molecular target: human serum albumin (HSA) (UniProt P02768)
[2] = molecular target: streptavidin (on Dynabeads) (UniProt P22629)
[3] = molecular target: human IgG (on Sepharose, Pharmacia) (human); assay: cell-based or functional assay

Chain of UniProt P22629 (P22629 whole entry, looked up): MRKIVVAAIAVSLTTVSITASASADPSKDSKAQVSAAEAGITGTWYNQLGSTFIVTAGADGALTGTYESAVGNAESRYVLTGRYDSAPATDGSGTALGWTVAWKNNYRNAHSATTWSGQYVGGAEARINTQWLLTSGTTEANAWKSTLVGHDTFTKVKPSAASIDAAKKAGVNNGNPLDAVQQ

Row | Peak area of the 190-bp extension product, heat-released enzyme (95° C.-treated Z-ΔTaq-human IgG-Sepharose) [3] | Peak area of the 190-bp extension product, immobilized enzyme (polymerase activity at 50° C.) [3] | increase of the area of the 190-peak, free or heat-released enzyme against enzyme on beads heated only to 50° C. [3] [times] | Substance | hot start PCR of K-ras (primer-dimer formation) [1] | hot-start effect in kRAS PCR (primer-dimer formation) [1] | primer extension (190 nt product) at 60° C., immobilized enzyme [1] | relative polymerase activity at 45-75° C. and after 95° C. [1] | hot-start effect in kRAS PCR (primer-dimer formation) [2]
1 |  |  |  | TagTaq fusion protein (Bio-His6-ABP fused to Taq DNA polymerase I residues 3-832) | using either a conventional hot start procedure (lane 8) or immobilized TagTaq polymerase (lanes 1 to 3), high yields of essentially pure, full-length PCR products free from primer-dimers are obtained | All the immobilised enzymes show hot-start effect in PCR with regard to preventing primer-dimer formation | TagTaq protein: HSA-Sepharose incubated with the substrate at the same temperature resulted in only very small amounts of the 190 nt extension product | TagTaq indeed is active in the presence of HSA-Sepharose, but only after incubation at a temperature high enough to break the ABP-HSA affinity interaction | All the immobilised enzymes show hot-start effect in PCR with regard to preventing primer-dimer formation
2 | 8380 | 594 | > 15 | Z-ΔTaq fusion protein (from UniProt P0AD92 1-8; P38507 212-269; P19821 236-832) (enzyme) |  |  |  |  | 

From patent US6610479
